# Data reported in patent US20230053214.
# Biological target: human tau (441 amino acids), wild-type
protein,measurement,value
human wild-type p38γ (HA-tagged) (protein) MSSPPPARSGFYRQEVTKTAWEVRAVYRDLQPVGSGAYGAVCSAVDGRTGAKVAIKKLYRPFQSELFAKRAYRELRLLKHMRHENVIGLLDVFTPDETLDDFTDFYLVMPFMGTDLGKLMKHEKLGEDRIQFLVYQMLKGLRYIHAAGIIHRDLKPGNLAVNEDCELKILDFGLARQADSEMTGYVVTRWYRAPEVILNWMRYTQTVDIWSVGCIMAEMITGKTLFKGSDHLDQLKEIMKVTGTPPAEFVQRLQSDEAKNYMKGLPELEKKDFASILTNASPLAVNLLEKMLVLDAEQRVTAGEALAHPYFESLHDTEDEPQVQKYDDSFDDVDRTLDEWKRVTYKEVLSFKPPRQLGARVSKETPL,in vitro kinase assay with tau variants mutated to alanine,"confirmed site-specific phosphorylation of S199, T205, S396 and S404 by p38γ"
same,"in vitro kinase assay, immunoblotting with phosphorylation site specific antibodies","showed phosphorylation of tau at S199, T205, S396 and S404, but not other sites tested by p38γ"
